Test in all cases: purified protein
Common to all, as to details: 100 mM sodium acetate, pH 5.5, 37 °C, 30 min, no added calcium

Substrate in data set [1]: OC[C@H]1O[C@@](CO)(O[C@H]2O[C@H](CO)[C@@H](O)[C@H](O)[C@H]2O)[C@@H](O)[C@@H]1O
Type of data set: biochemical, Aedes aegypti.

Substrate in data set [2]: OC[C@H]1O[C@@](CO)(O[C@H]2O[C@H](CO)[C@@H](O)[C@H](O)[C@H]2O)[C@@H](O)[C@@H]1O
In kind it is biochemical, Anopheles gambiae.

Substrate in data set [3]: OC[C@H]1O[C@@](CO)(O[C@H]2O[C@H](CO)[C@@H](O)[C@H](O)[C@H]2O)[C@@H](O)[C@@H]1O
Type of data set: biochemical, Culex quinquefasciatus.

This is an account of results in paper PMC10955559.

B1: AeGluc (Aedes aegypti) (protein)
chain: LDWWEHGNFYQVYPRSFKDSDGDGIGDLDGVTEKLKYLKDIGMDGVWLSPIFSSPMADFGYDISNFREIQTEYGDLDAFQRLSDKCKQLGLHLILDFVPNHTSDQHEYFKKSVQKDETYKDFYVWHPGVHGPNNTKVPPSNWISVFRGSSWEWNEERQEFYLHQFLKEQPDLNYRNPAVVEEMKNVLRYWLDRGVSGFRIDAVPYLFESDIIDGRYRNEPESRTTDDPENPAYLVHTQTMDQPETYDMIYQWRAVLDEYSKTDNRTRIMMTEGYTSLPKIIEFFGNATANGAQIPFNFEVISNVKKNSTGADFATYVKRWLDAKPANRRSNWVLGNHDNNRLGSRLGENKIDLYNIALQTLPDIAVTYYGEEIGMLDQWIPWNETVDPAACRSDEASYSAYSRDPARTPMQWDSGKNAGFSKAAKTWLPVADNYKTLNVKIQDRARKSHLKIFKKLTKYRKRQILTEGDIDIKVSGENLLVYKRKVDKVGYVVVALNFGTEPVALGLSSLFDRADQRMQVVVSSNRVSTPDNVWVDVDNYVLIGESGIVLQYLWGKNPIVS
What is called Km is the concentration of substrate that gives half-maximal velocity. A word on the Vmax: it is the top rate of the reaction or transport when substrate is in excess. The term kcat denotes the maximal rate divided by the concentration of active sites. Usually kcat/Km stands for the turnover number divided by the Michaelis constant. As for B1, in the data set “purified protein [1]”, the Michaelis constant (Km) is on record as 47.6 ± 16.3 mM, the Vmax worked out at 740 µM/min, the turnover number (kcat) was determined as 805 ± 66.7 s⁻¹ and the kcat/Km amounted to 16900 ± 1380 M⁻¹ s⁻¹.

B2: AnGluc (Anopheles gambiae) (protein)
chain: HRPLPIRKAHKFDWWERGNFYQIYPRSFKDSDGDGIGDLKGITQTIDYLKTIGIDGVWLSPIFKSPMNDFGYDISDFYAIQEEYGTMEDFEELAAKCASIGLKLILDFVPNHSSDEHEHFRLSEEGIEPYKDYYIWHSGVLDANGTRHPPSNWISVFRGSAWQWSDKRQQYYLHQFQKKQPDLNYRNPALVEEMKNVMRFWLNKGIAGFRIDALPYLFESEEVDGHYRDEPLSGQATDDPDNPAYLTHTETKDQPETYDMVHQWRQVVDEYTARDNFTRIILTEAYTAVQNMTRFYGTPAAPGAQIPFNFQLITLLTVNSTGRDFVNAVQSWTRAMPSGAIANWVLGNHDNSRIASRLGVARADLYNIALQTLPGIAVTYYGEEIAMVDQWISWNDTIDPAACNADPATYELYSRDPVRTPFQWSNGTNAGFSNASRTWLPVADGYRELNVAAQLAAPRSHLKTFMQLTAYRKRRLLAEGNFVLRTVGRDLVMYKRSVPGVGYVVVALNFGPEPATLPVASQFPGTGEHWLKVIASSLQAQPQAGTWINTRLYKLAPDSGIVLERLTGRNDLMT
For B2, in the data set “purified protein [2]”, the Km is reported as 20.4 ± 7.4 mM, the Vmax was determined as 740 µM/min, the kcat amounted to 815 ± 60 s⁻¹ and the kcat/Km came to 40000 ± 2920 M⁻¹ s⁻¹.

B3: CxGluc (Culex quinquefasciatus) (protein)
chain: LQWWEHGNFYQVYPRSFKDSDGNGIGDLDGVTEKLQYLKDVGMDGIWLSPIFASPMADFGYDISDFYNIQGEYGDLAAFERLSAKCKELGLRLILDFVPNHTSNQHEYFKKSVQKEDPYTNYYVWHPGVTNEDGTKSPPSNWISVFRGSAWEWNEDRQEYYLHQFLKEQPDLNYRDPALVEEMKNVLKFWLNKGVSGFRIDAVPYLFESVEVENRYVDEPLSRATDDAENPAYLIHNQTMDQPETYDMIYQWRAVLDEFTAKDNQTRIMMTEGYTSIPNVMKFFGEGEQNGAQIPFNFQMISNLRKTSTAADFARYANLWLDNLPAGRRSNWVLGNHDNNRIGSRLGEAKIDLYNIALQTLPDIAVTYYGEEIGMVDQPIPFNETVDPAGLRAGPDDYTLYSRDPARTPMQWNSDKNAGFSSADKTWLPVATNYKQLNVKAQDAAQKSHLKLFKRLTTYRKRQILTHGDLDLRTTDSNLVLYKRKVDKVGYVVVVLNFSDEPQSLAAIKQQFPGADDRLQVVASSKLVTIKDNKWINVADTELPGESAIVLQKLWGPNPVVVYEA
As for B3, in “purified protein [3]”, the Km is on record as 40.1 ± 15.1 mM, the Vmax worked out at 690 µM/min, the kcat is 750 ± 75 s⁻¹ and the kcat/Km was determined as 18700 ± 1850 M⁻¹ s⁻¹.
